Assay results reported in paper PMC4776146, “Distinct phosphorylation sites on the ghrelin receptor, GHSR1a, establish a code that determines the functions of ß-arrestins” (Scientific Reports, 2016).

Experiments:
Assay in all cases: FRET or BRET; BRET in living HEK 293 cells; eYFP-tagged receptor and Rluc-ß-arrestin co-transfected at a ratio of 4:1; Hanks' balanced salt solution; coelenterazine 2.5 uM for 10 min at 37 °C, then ghrelin for 5 min; concentration response curves for ghrelin; emissions at 535 and 475 nm
[1] = molecular target: GHSR1a-TM (triple mutant of Ser362, Ser363 and Thr366 to Ala) fused at its C terminus to eYFP (UniProt Q92847)
[2] = molecular target: GHSR1a-Total (Ser349, Thr350, Ser362, Ser363 and Thr366 substituted by Ala) fused at its C terminus to eYFP (UniProt Q92847)
[3] = molecular target: T1, GHSR1a-DM (double mutant Thr350Ala, Ser349Ala) fused at its C terminus to eYFP (UniProt Q92847 1-366, Thr350Ala | Ser349Ala); conditions: partners not purified
T1 construct: also called YFP-GHSR1a-DM; source: HEK 293, transiently co-transfected (Lipofectamine 2000), in living cells; not shown: eYFP, C-terminal, kept

[4] = molecular target: T2, GHSR1a-WT fused at its C terminus to enhanced yellow fluorescent protein (eYFP) (UniProt Q92847 1-366); conditions: partners not purified
T2 construct: amplified by PCR with primers that removed the stop codon, subcloned upstream of full-length eYFP in pcDNA3.1; Phosphorylated in cells after ghrelin at Ser349, Thr350, Ser362, Ser363 and Thr366 (mass spectrometry on the EGFP-tagged receptor); also called YFP-GHSR1a-WT; YFP tagged-GHSR1a-WT; source: HEK 293, transiently co-transfected (Lipofectamine 2000), in living cells; not shown: eYFP, …
T2 sequence (Q92847 whole entry, the tested form may be a part): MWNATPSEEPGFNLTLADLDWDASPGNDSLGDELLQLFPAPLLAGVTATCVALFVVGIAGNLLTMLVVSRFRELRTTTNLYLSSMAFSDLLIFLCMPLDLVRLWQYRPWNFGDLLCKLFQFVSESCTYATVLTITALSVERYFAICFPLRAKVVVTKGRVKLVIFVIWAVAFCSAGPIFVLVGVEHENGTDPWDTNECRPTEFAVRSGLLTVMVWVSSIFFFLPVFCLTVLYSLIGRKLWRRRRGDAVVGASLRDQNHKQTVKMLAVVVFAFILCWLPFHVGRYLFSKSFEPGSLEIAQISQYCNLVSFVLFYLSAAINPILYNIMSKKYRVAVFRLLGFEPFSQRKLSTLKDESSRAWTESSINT

Chain of GHSR1a-TM (triple mutant of Ser362, Ser363 and Thr366 to Ala) fused at its C terminus to eYFP (Q92847 other isoform, or with tags, fused parts or gaps, change not shown): as the sequence (Q92847 whole entry, the tested form may be a part) above, with S362A, S363A, T366A counted along it
Chain of ß-arrestin 2 tagged with Rluc at its C-terminus (P32121 whole entry): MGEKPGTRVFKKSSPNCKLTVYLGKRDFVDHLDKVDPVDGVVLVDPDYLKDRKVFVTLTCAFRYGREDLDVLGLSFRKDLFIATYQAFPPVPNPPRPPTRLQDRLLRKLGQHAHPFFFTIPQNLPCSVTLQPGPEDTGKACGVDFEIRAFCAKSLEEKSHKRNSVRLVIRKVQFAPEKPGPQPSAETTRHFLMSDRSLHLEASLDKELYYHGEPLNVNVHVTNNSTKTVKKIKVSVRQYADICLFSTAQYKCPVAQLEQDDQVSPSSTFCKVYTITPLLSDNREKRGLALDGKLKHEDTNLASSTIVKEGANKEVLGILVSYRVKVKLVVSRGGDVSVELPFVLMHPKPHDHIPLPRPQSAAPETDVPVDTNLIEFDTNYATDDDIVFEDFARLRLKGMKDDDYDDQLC
Chain of GHSR1a-Total (Ser349, Thr350, Ser362, Ser363 and Thr366 substituted by Ala) fused at its C terminus to eYFP (Q92847 other isoform, or with tags, fused parts or gaps): as the sequence (Q92847 whole entry, the tested form may be a part) above, with S349A, T350A, S362A, S363A, T366A counted along it
T1 sequence (Q92847 whole entry S349A/T350A, the tested form may be a part): as the sequence (Q92847 whole entry, the tested form may be a part) above, with S349A, T350A counted along it

efficacy of recruitment, percent of GHSR1a-WT response (BRET) (% of GHSR1a-WT response) [1]	pEC50 of ghrelin for ß-arrestin 2 recruitment (BRET) [1]	efficacy of recruitment, percent of GHSR1a-WT response (BRET) (% of GHSR1a-WT response) [2]	pEC50 of ghrelin for ß-arrestin 2 recruitment (BRET) [2]	pEC50 of ghrelin for ß-arrestin 1 recruitment (BRET) [3]	pEC50 of ghrelin for ß-arrestin 1 recruitment (BRET) [4]	pEC50 of ghrelin for ß-arrestin 1 recruitment (BRET) [1]	pEC50 of ghrelin for ß-arrestin 1 recruitment (BRET) [2]	Molecule
24.6	6.97	18	6.04					ß-arrestin 2 tagged with Rluc at its C-terminus (from UniProt P32121 1-409) (natural protein)
36.8		31.8		7.1	7.54	7.13	6.01	Renilla luciferase-tagged ß-arrestin 1 (natural protein, UniProt P49407 1-418, looked up, plasmid provided by Prof; Mark Scott (Institut Cochin, Paris); also called Rluc-ß-arrestin 1; source: HEK 293, transiently co-transfected (Lipofectamine 2000), in living cells) MGDKGTRVFKKASPNGKLTVYLGKRDFVDHIDLVDPVDGVVLVDPEYLKERRVYVTLTCAFRYGREDLDVLGLTFRKDLFVANVQSFPPAPEDKKPLTRLQERLIKKLGEHAYPFTFEIPPNLPCSVTLQPGPEDTGKACGVDYEVKAFCAENLEEKIHKRNSVRLVIRKVQYAPERPGPQPTAETTRQFLMSDKPLHLEASLDKEIYYHGEPISVNVHVTNNTNKTVKKIKISVRQYADICLFNTAQYKCPVAMEEADDTVAPSSTFCKVYTLTPFLANNREKRGLALDGKLKHEDTNLASSTLLREGANREILGIIVSYKVKVKLVVSRGGLLGDLASSDVAVELPFTLMHPKPKEEPPHREVPENETPVDTNLIELDTNDDDIVFEDFARQRLKGMKDDKEEEEDGTGSPQLNNR
